Paper PMC3536758

Biological target: T1, MBP-ComKBco (Bacillus coagulans DSM 1) (UniProt K4MVI2)
T1 sequence: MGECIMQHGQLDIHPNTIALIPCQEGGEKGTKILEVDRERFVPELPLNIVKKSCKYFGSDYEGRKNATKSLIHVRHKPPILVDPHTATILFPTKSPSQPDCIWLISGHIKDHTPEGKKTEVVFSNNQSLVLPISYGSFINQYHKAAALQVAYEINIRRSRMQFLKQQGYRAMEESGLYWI
Experiment: EMSA
Details: EMSA: binding buffer (composition not given) with poly(dI-dC), premixed on ice, 20 min at 30 C; 6% polyacrylamide gel in 1x TBE, 90 V, 60 min; pH and salt not …

Q: Which binding does the source give for “ACGGGTACCATTTGCCGGAAATCGACGTGCCGGCAGCAGGACATAAAAGTGACCCGGTCGCAATAAAGGGGCAATAAGTTTTCGGCATGTTCATCCTTGCCATTACATATGCTTAATATCGCCCGTTGCTTGCCGGTAGCGAACCAAGAAAATACCATATGCTGAAAGATCAGAGGGATCAAACATGCATGGATTATGGACAGCTTATTTTGCGGGGCCCCGT (double strand) [comCBco promoter]” here?
A: binds more weakly
